Results as given in US20200191797A1.

Assays:
[1] = biological target: IgE of pooled serum samples (human); assay: cross-inhibition ELISA; inhibitor 1 ug/ml with pooled sera; C. idella parvalbumin on the plate
[2] = biological target: IgE of pooled serum samples (human); assay: cross-inhibition ELISA; inhibitor 50 ug/ml with pooled sera; C. idella parvalbumin on the plate
[3] = biological target: IgE of pooled serum samples (human); assay: cross-inhibition ELISA; C. idella parvalbumin on the plate; inhibitor concentration not stated

B1: recombinant cod allergen Gad m 1 (cod parvalbumin) (protein, UniProt Q90YK9 1-109, looked up, not shown: small tags and cut ends)
chain: MAFAGILNDADITAALAACKAEGSFDHKAFFTKVGLAAKSPADIKKVFEIIDQDKSDFVEEDELKLFLQNFSAGARALSDAETKVFLKAGDSDGDGKIGVDEFGAMIKA
% inhibition of IgE binding [1]: 40%
% inhibition of IgE binding [2]: 50%

B2: recombinant aldolase A of grass carp Ctenopharyngodon idella (enzyme, not shown: small tags and cut ends)
chain: MPHAYPFLTPEQKKELSDIALRIVAPGKGILAADESTGSVAKRFQSINAENTEENRRLYRQLLFTADDRVKPCIGGVILFHETLYQKADDGKLFSQLLKERGMVVGIKVDKGVVPLAGTNGETTTQGLDGLYERCAQYKKDGADFAKWRCVLKITSTTPSRLAIIENANVLARYASICQMHGIVPIVEPEILPDGDHDLKRCQYVTEKVLAAVYKALSDHHVYLEGTLLKPNMVTAGHSCSQKNTPQEIAMATVTALRRTVPPAVPGITFLSGGQSEEEATLNLNAMNKCPLHRPWALTFSYGRALQASALKAWGGKKENGKACQEEFIKRALNNSLACVGKYVSSGDKGAAAGESLFVANHAY
% inhibition of IgE binding [3]: 10%
